The results in this text go back to paper PMC2872554 (Nature structural & molecular biology, 2010).

A value given as a limit tells only on which side of the number the result lay.

The target of data set [1] is mouse E-cadherin EC1-2 W2A (mouse). The data set can be described thus: AUC.
Data set [2] concerns the target mouse E-cadherin EC1-2 K14S (mouse). The data set can be described thus: AUC.
Data set [3] concerns the target mouse E-cadherin EC1-2 Y142R (mouse). The data set can be described thus: AUC.
Data set [4] deals with mouse E-cadherin EC1-2 AA extension mutant (mouse). The data set can be described thus: AUC.
Data set [5] deals with mouse cadherin-6 EC1-2 M188D (mouse). Briefly: AUC.
Data set [6] deals with C-terminally biotinylated mouse cadherin-6 EC1-2 M188D (mouse). The data set can be described thus: SPR.
The target in data set [7] is mouse E-cadherin EC1-2 fragment, wild type (mouse). Briefly: AUC.
Data set [8] concerns the target mouse E-cadherin EC1-2 K14E (mouse). The data set can be described thus: AUC.
Data set [9] deals with mouse cadherin-6 EC1-2 W4A (mouse). Briefly: AUC.
The target in data set [10] is mouse cadherin-6 EC1-2 fragment, wild type (mouse). Briefly: AUC.
Data set [11] concerns the target mouse E-cadherin EC1-2 E89A (mouse). Briefly: AUC.
The data set “crystal structure” deals with the molecule itself. Briefly: crystal structure.

“mouse E-cadherin EC1-2 W2A (domain or fragment)”: the dissociation constant (Kd) in data set [1] worked out at 916 µM. In data set [2], “mouse E-cadherin EC1-2 K14S (domain or fragment)” gave a Kd of 96 µM. Turning to “mouse E-cadherin EC1-2 Y142R (domain or fragment)”, the Kd in [3] came out at 77.4 µM. Molecule “mouse E-cadherin EC1-2 AA extension mutant (domain or fragment)” displayed a Kd in data set [4] of 811 µM. As to “mouse cadherin-6 EC1-2 M188D (domain or fragment)”, in data set [5], the Kd is 12.6 µM. The binding response in [6] was under 10 RU. “mouse E-cadherin EC1-2 fragment, wild type (domain or fragment)”: the equilibrium dissociation constant (Kd) in data set [7] came to 98.6 µM. “mouse E-cadherin EC1-2 K14E (domain or fragment)” yielded an equilibrium dissociation constant (Kd) in [8] of 117 µM. With “mouse cadherin-6 EC1-2 W4A (domain or fragment)”, the Kd in [9] amounted to 321 µM. Take “mouse cadherin-6 EC1-2 fragment, wild type (domain or fragment)”: the dissociation constant (Kd) in [10] was 3.1 µM. Molecule “mouse E-cadherin EC1-2 E89A (domain or fragment)” gave a Kd in data set [11] of 293 µM.

B1: mouse N-cadherin EC1-2 fragment, wild type (domain or fragment)
chain: DWVIPPINLPENSRGPFPQELVRIRSDRDKNLSLRYSVTGPGADQPPTGIFIINPISGQLSVTKPLDRELIARFHLRAHAVDINGNQVENPIDIVINVIDMNDNRPEFLHQVWNGSVPEGSKPGTYVMTVTAIDADDPNALNGMLRYRILSQAPSTPSPNMFTINNETGDIITVAAGLDREKVQQYTLIIQATDMEGNPTYGLSNTATAVITVTD
B1: the binding result in the data set “crystal structure” is reported as “binds”.
